Patent US20020009752A1 (DUKE UNIVERSITY, published 2002)
No end group written: not given here.

Legend:
[1] = target: T1, polyglutamine-glutathione-S-transferase fusion protein with 62 glutamines (UniProt Q156A1 2-63); assay: phage ELISA on immobilized Q62-GST and Q19-GST, anti-M13 antibody detection; reference Q19-GST
T1 construct: Vector construction is cited to Onodera et al. 1996; also called Q62-GST; Q62; not shown: glutathione-S-transferase (GST)

bovine serum albumin = target: T2, bovine serum albumin (bovine, UniProt P02769 25-607); assay: phage ELISA
T2 construct: also called BSA

[2] = target: thioredoxin-polyglutamine fusion protein with 81 glutamines (Dictyostelium discoideum (Social amoeba), UniProt Q54DK4 734-1290); assay: cell-based or functional assay
[3] = target: thioredoxin-polyglutamine fusion protein with 62 glutamines (Homo sapiens (Human), UniProt Q156A1 2-63); assay: cell-based or functional assay
Chain of thioredoxin-polyglutamine fusion protein with 62 glutamines (Q156A1 2-63): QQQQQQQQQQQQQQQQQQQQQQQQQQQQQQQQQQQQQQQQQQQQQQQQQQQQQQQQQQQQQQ

T2 sequence (P02769 25-607 limits assumed): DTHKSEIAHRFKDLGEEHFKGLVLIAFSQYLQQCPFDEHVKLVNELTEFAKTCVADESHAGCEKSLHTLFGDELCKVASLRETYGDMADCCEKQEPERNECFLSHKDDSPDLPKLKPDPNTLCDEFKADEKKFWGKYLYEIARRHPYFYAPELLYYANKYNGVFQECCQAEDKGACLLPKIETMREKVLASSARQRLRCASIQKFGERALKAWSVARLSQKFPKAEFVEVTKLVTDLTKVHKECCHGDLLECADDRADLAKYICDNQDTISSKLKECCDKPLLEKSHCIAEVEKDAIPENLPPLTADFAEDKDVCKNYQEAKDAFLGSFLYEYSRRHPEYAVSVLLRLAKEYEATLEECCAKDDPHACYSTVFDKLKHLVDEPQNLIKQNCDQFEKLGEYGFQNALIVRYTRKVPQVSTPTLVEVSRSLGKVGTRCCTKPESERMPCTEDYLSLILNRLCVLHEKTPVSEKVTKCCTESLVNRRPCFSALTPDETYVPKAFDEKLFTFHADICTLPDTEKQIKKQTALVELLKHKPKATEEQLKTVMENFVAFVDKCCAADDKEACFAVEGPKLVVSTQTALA
T1 sequence (Q156A1 2-63): as the sequence (Q156A1 2-63) above
Chain of thioredoxin-polyglutamine fusion protein with 81 glutamines (Q54DK4 other isoform, or with tags, fused parts or gaps): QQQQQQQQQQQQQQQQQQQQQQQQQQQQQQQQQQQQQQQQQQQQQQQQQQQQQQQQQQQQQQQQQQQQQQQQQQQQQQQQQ

Binder | RATIO Q62/Q19 BINDING ELISA [1] | binding result (bovine serum albumin) | inhibition of thio-Q81 aggregation in vitro (turbidity at 405 nm) [2] | inhibition of thio-Q62 aggregation in vitro (turbidity at 405 nm) [3]
WWRWNWATPVD-pIII (Assayed as purified M13 phage displaying the 11-mer at the amino terminus of pIII; not shown: pIII (Piii) capsid protein of phage M13; the 11-mer is added to its amino terminus; assayed as whole phage) [QBP5 phage clone (Glutamine Binding Peptide 5 displayed on M13 phage)] | 1.25 ratio (phage bound to Q62-GST divided by phage bound to Q19-GST) | no binding | – | –
HWWRSWYSDSV-pIII (Assayed as purified M13 phage displaying the 11-mer at the amino terminus of pIII; not shown: pIII (Piii) capsid protein of phage M13; the 11-mer is added to its amino terminus; assayed as whole phage) [QBP2 phage clone (Glutamine Binding Peptide 2 displayed on M13 phage)] | 1.31 ratio (phage bound to Q62-GST divided by phage bound to Q19-GST) | no binding | – | –
SNWKWWPGIFD-pIII (Assayed as purified M13 phage displaying the 11-mer at the amino terminus of pIII; not shown: pIII (Piii) capsid protein of phage M13; the 11-mer is added to its amino terminus; assayed as whole phage) [QBP1 phage clone (Glutamine Binding Peptide 1 displayed on M13 phage)] | 1.66 ratio (phage bound to Q62-GST divided by phage bound to Q19-GST) | no binding | – | –
HEWHWWHQEAA-pIII (Assayed as purified M13 phage displaying the 11-mer at the amino terminus of pIII; not shown: pIII (Piii) capsid protein of phage M13; the 11-mer is added to its amino terminus; assayed as whole phage) [QBP3 phage clone (Glutamine Binding Peptide 3 displayed on M13 phage)] | 1.3 ratio (phage bound to Q62-GST divided by phage bound to Q19-GST) | no binding | – | –
WGLEHFAGNKR-pIII (Assayed as purified M13 phage displaying the 11-mer at the amino terminus of pIII; not shown: pIII (Piii) capsid protein of phage M13; the 11-mer is added to its amino terminus; assayed as whole phage) [QBP4 phage clone (Glutamine Binding Peptide 4 displayed on M13 phage)] | 1.27 ratio (phage bound to Q62-GST divided by phage bound to Q19-GST) | no binding | – | –
WHNYFHWWQDT-pIII (Assayed as purified M13 phage displaying the 11-mer at the amino terminus of pIII; not shown: pIII (Piii) capsid protein of phage M13; the 11-mer is added to its amino terminus; assayed as whole phage) [QBP6 phage clone (Glutamine Binding Peptide 6 displayed on M13 phage)] | 1.23 ratio (phage bound to Q62-GST divided by phage bound to Q19-GST) | no binding | – | –
Ac-SNWKWWPGIFD [QBP1 synthetic 11-mer peptide (glutamine binding peptide 1)] | – | – | 10 fold molar excess of QBP1 over thio-Q81 | 3 molar ratio thio-Q62:QBP1 (3:1) for complete inhibition
